Assay results: patent US20250188154A1

Experiments:
[1] = molecular target: SARS-CoV-2 spike D614G on pseudovirus (VRC7480.D614G) (SARS-CoV-2) (UniProt P0DTC2); experiment: cell-based or functional assay
[2] = molecular target: SARS-CoV-2 D614G live virus spike (SARS-CoV-2) (UniProt P0DTC2); experiment: cell-based or functional assay

Row | Substance | Pseudovirus IC50 [1] [µg/mL] | Pseudovirus IC80 [1] [µg/mL] | Pseudovirus MPI [1] [%] | Pseudovirus neutralization IC50 [1] [µg/mL] | Pseudovirus neutralization IC80 [1] [µg/mL] | Pseudovirus neutralization MPI [1] [%] | live virus neutralization IC50 [2] [µg/mL]
1 | DH1042 (antibody) | 0.011 | 0.053 | 100 | 0.011 | 0.053 | 100 | –
2 | DH1047 (antibody) | – | – | – | 0.09 | 0.36 | 100 | 0.059
